For this data set, the system named is T1, O=[N+]([O-])c1ccc(OP(=O)(O)O)cc1.
T1 construct: catalytic (phosphatase) domain CNA1–341 (PxCNα), His-tagged, expressed in E. coli
Kind of data set: Michaelis-Menten kinetics of purified rPxCNα (Km). It counts as biochemical, Plutella xylostella. The note with it: Mn2+ ([…] MnCl2 in assay buffer).

Calcineurin subunit A (PxCNA), catalytic domain PxCNα (Plutella xylostella), sequence (chain, as listed by the source): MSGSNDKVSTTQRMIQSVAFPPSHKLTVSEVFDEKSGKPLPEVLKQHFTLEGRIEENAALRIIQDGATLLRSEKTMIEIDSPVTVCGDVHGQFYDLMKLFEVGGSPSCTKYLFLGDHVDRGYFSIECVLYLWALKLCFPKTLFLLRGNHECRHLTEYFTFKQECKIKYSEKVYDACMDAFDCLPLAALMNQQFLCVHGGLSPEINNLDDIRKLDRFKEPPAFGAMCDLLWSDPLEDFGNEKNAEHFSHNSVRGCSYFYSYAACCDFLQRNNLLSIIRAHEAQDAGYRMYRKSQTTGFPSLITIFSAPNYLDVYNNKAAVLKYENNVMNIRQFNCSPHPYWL

For the substance “Calcineurin subunit A (PxCNA), catalytic domain PxCNα (Plutella xylostella)”, the Km is 4.6 mM.

As a reminder, the Km is the substrate concentration at which the rate is half of its maximum.

These data come from publication PMC3821638, “Molecular Cloning and Characterization of the Calcineurin Subunit A from Plutella xylostella” (International Journal of Molecular Sciences, 2013).
